We go through one variant from PMC7862291 (2021).

First the molecules themselves.
B1: wild type human KMO (Hs-KMO), NanoBRET constructs [human] / itself (parent complex)
chain: MDSSVIQRKKVAVIGGGLVGSLQACFLAKRNFQIDVYEAREDTRVATFTRGRSINLALSHRGRQALKAVGLEDQIVSQGIPMRARMIHSLSGKKSAIPYGTKSQYILSVSRENLNKDLLTAAEKYPNVKMHFNHRLLKCNPEEGMITVLGSDKVPKDVTCDLIVGCDGAYSTVRSHLMKKPRFDYSQQYIPHGYMELTIPPKNGDYAMEPNYLHIWPRNTFMMIALPNMNKSFTCTLFMPFEEFEKLLTSNDVVDFFQKYFPDAIPLIGEKLLVQDFFLLPAQPMISVKCSSFHFKSHCVLLGDAAHAIVPFFGQGMNAGFEDCLVFDELMDKFSNDLSLCLPVFSRLRIPDDHAISDLSMYNYIEMRAHVNSSWFIFQKNMERFLHAIMPSTFIPLYTMVTFSRIRYHEAVQRWHWQKKVINKGLFFLGSLIAISSTYLLIHYMSPRSFLRLRRPWNWIAHFRNTTCFPAKAVDSLEQISNLISR

The variants in the test derive from B1. The experiment in a line: NanoBRET; HEK293T cells; + ligand (TMR ligand); n = 6; read off a plot. For orientation: In BRET a luciferase serves as donor, and the signal depends on an acceptor being close.
Consider chain 1 D184A, chain 1 Y185P, chain 1 Q187A, for which the response is around 78 mBU.
